Assays:
[1] = system: C[C@@H]1O[C@@H](Oc2ccc(O)c3c2C(=O)c2ccccc2C3=O)[C@H](O)[C@H](O)[C@H]1O; test: HPLC methylation assay, nonlinear Michaelis-Menten fit; assay type: biochemical, Nocardia sp. CS682; details: 2 mM SAM (saturating), 2 mM MgCl2, 50 mM Tris-HCl pH 7.5, QR 5 to 200 μM
[2] = system: C[S+](CC[C@H](N)C(=O)O)C[C@H]1O[C@@H](n2cnc3c(N)ncnc32)[C@H](O)[C@@H]1O; test: as above; assay type: biochemical, Nocardia sp. CS682; details: 100 μM QR (near saturation), 2 mM MgCl2, 50 mM Tris-HCl pH 7.5, SAM 5 to 200 μM

ThnM1 (Nocardia sp. CS682) showed a Km [1] of 11.70 ± 1.97 µM and a Km [2] of 32.7 ± 7.06 µM.

Source: PMC9275233, “Functional Characterization of a Regiospecific Sugar-O-Methyltransferase from Nocardia” (Applied and Environmental Microbiology, 2022)
